{"source": "paper PMC6126924", "about": "“Arabidopsis formin 2 regulates cell-to-cell trafficking by capping and stabilizing actin filaments at plasmodesmata” (eLife, 2018)", "proteins": {"B1": {"name": "6His-AtFH2-FH2 (domain or fragment, Arabidopsis thaliana, UniProt O22824 438-864, looked up)", "chain": "EKKVETMKPKLKTLHWDKVRASSSRVMVWDQIKSNSFQVNEEMIETLFKVNDPTSRTRDGVVQSVSQENRFLDPRKSHNIAILLRALNVTADEVCEALIEGNSDTLGPELLECLLKMAPTKEEEDKLKELKDDDDGSPSKIGPAEKFLKALLNIPFAFKRIDAMLYIVKFESEIEYLNRSFDTLEAATGELKNTRMFLKLLEAVLKTGNRMNIGTNRGDAHAFKLDTLLKLVDIKGADGKTTLLHFVVQEIIKFEGARVPFTPSQSHIGDNMAEQSAFQDDLELKKLGLQVVSGLSSQLINVKKAAAMDSNSLINETAEIARGIAKVKEVITELKQETGVERFLESMNSFLNKGEKEITELQSHGDNVMKMVKEVTEYFHGNSETHPFRIFAVVRDFLTILDQVCKEVGRVNERTVYGSMPLHSPSN", "notes": "Arabidopsis thaliana Formin 2 (AtFH2, At2g43800), FH2 domain; cloned in pET23a; Mainly a dimer by size exclusion chromatography (about 100 kDa); source: E. coli Tuner (DE3) pLysS, purified (Ni-NTA)"}}, "molecular_target": "the molecule itself", "assay": "SEC; Superdex 200 Increase 10/300; 100 mM Tris-HCl pH 8.5, 150 mM NaCl, 1 mM DTT, 5% glycerol; 0.4 mL/min; His-tag fusion proteins"}
{"protein": "B1", "values": [{"measurement": "stoichiometry N", "result": 2}]}
